The text below walks through data of the RNAGym collection of RNA variant scans (doi:10.7554/elife.80360).

To fix the notation:
B1: CPEB3 Ribozyme (parent)
chain: GGGGGCCACAGCAGAAGCGUUCACGUCGCGGCCCCUGUCAGAUUCUGGUGAAUCUGCGAAUUCUGCUGU

In this data set the parent is B1. As to the kind of experiment: self-cleavage, relative activity (ratio to wild type); higher = more cleavage; co-transcriptional.
Turning to G28U A40C, the self-cleavage worked out at 0.225. Under G28U A40G stands 0.232. For the variant G28C G65A, the self-cleavage stood at 0.161. Under G28C G65C stands 0.19; under G28A U55C, 0.214; under G28U C63A, 0.189.

Take G28U C63U: the self-cleavage was 0.187. On to G28U C63G, for which the self-cleavage came to 0.254.

For the variant C29A C39U, the self-cleavage is 0.372. For the variant C29A C39G, the self-cleavage was determined as 0.431. Then G28C A59U, with 0.189; and G28C A59C, with 0.16.

As to G28C A59G, the self-cleavage worked out at 0.132. With G28C A51G, the self-cleavage is 0.247. Then G28C A51U, with 0.165; and G28C A51C, with 0.119. Under G28C C63U stands 0.192; under G28C C34G, 0.245.

Regarding G28C C34U, the self-cleavage was determined as 0.136. Then C27U G30A, with 0.224.

On to C27U G30C, for which the self-cleavage was found to be 0.164. Regarding C27U G30U, the self-cleavage turned out to be 0.181. Under G28U C45A stands 0.189; under G28U C45U, 0.168; under G28C G58C, 0.158.

Consider G28C C66G, for which the self-cleavage came out at 0.141. For the variant G28C C66U, the self-cleavage came to 0.211. With G28C C66A, the self-cleavage was found to be 0.163. Then C29A A42G, with 0.533. As for C29A A42C, the self-cleavage is 0.409.

In the case of C29A A42U, the self-cleavage is 0.517.

As to G28U C39A, the self-cleavage was determined as 0.103.

As to G28U C39G, the self-cleavage was 0.206.

Turning to G28U U55A, the self-cleavage worked out at 0.203. Then G28U U55C, with 0.154; and G28A G31C, with 0.208. As to G28A C39U, the self-cleavage was determined as 0.17. Consider G28A C39A, for which the self-cleavage was 0.198. As for G28U G41U, the self-cleavage was 0.155. Under G28U G41C stands 0.163; under G28U G41A, 0.166; under G28A G37C, 0.193. For G28A G37A, the self-cleavage was found to be 0.157. Then G28A G37U, with 0.186; and G28U A60G, with 0.214. Under G28U A60C stands 0.226; under C29A C32U, 0.698.

For the variant C29A C32G, the self-cleavage came out at 0.155. Then G28U G47C, with 0.205; and G28U G47A, with 0.173; and G28U G47U, with 0.151. For C29A A60U, the self-cleavage came out at 0.257.

G28C C29G: the self-cleavage worked out at 0.153. Turning to G28C C29U, the self-cleavage is 0.137.

For the variant G28C C29A, the self-cleavage is 0.144. Under C27U G41U stands 0.186. For C27U G41C, the self-cleavage stood at 0.195.

For the variant G28A G68C, the self-cleavage worked out at 0.268. Then G28A G68U, with 0.195; and G28A A59U, with 0.198. Under G28C A60U stands 0.19; under G28C A60G, 0.168; under C27U C57G, 0.166. Then C27U C57A, with 0.242; and G28A A60C, with 0.197; and G28A A60U, with 0.199.

G28A A60G: the self-cleavage was found to be 0.168. For G28A A40U, the self-cleavage was 0.167. Under G28A A40G stands 0.214. As for G28U G50A, the self-cleavage came out at 0.237. Under G28U G50C stands 0.183; under G28C U67G, 0.295; under G28C U67C, 0.168. For C27U U61C, the self-cleavage amounted to 0.14. With G28U U43C, the self-cleavage turned out to be 0.176. Then G28C G31A, with 0.139; and G28C G31U, with 0.21. Under G28C G31C stands 0.172; under G28U U62G, 0.189; under G28U U62A, 0.216. Then G28A U61C, with 0.137; and G28A U61A, with 0.193. On to C29A C54A, for which the self-cleavage worked out at 0.312. Under C29A C63A stands 0.355; under G28A C35U, 0.203; under G28A C35A, 0.17. Then C27U C66A, with 0.179; and C27U C66G, with 0.262. As for C27U C66U, the self-cleavage amounted to 0.203.

Regarding G28U C29A, the self-cleavage was 0.142. Under G28U C29U stands 0.174; under G28A C29U, 0.177.

As for G28A C29A, the self-cleavage stood at 0.143. Then G28A C29G, with 0.117; and G28A U38G, with 0.147; and G28A U38C, with 0.196. Under G28C G68A stands 0.164; under G28C G68U, 0.221. On to G28U U46C, for which the self-cleavage stood at 0.19. G28U U46A: the self-cleavage came to 0.163. Then G28U U46G, with 0.187; and G28C A40U, with 0.215; and G28C A40G, with 0.211.

For G28C A40C, the self-cleavage came to 0.218.

With C27U U46C, the self-cleavage came to 0.301.

C27U U46G: the self-cleavage was found to be 0.372.

Take C27U U46A: the self-cleavage is 0.567. Under G28U C32A stands 0.236; under C29A C57A, 0.279; under C29A C57G, 0.225. Under C27U U69C stands 0.769; under C27U U69G, 0.457. Regarding C27U G31A, the self-cleavage is 0.266. Under C27U G31U stands 0.192; under G28U U67A, 0.168; under G28U U67G, 0.203. Then G28U U67C, with 0.224; and G28C G47A, with 0.187; and G28C G47C, with 0.258.

On to G28C G47U, for which the self-cleavage is 0.167. Under G28C U49C stands 0.145; under C29A A40U, 0.296. For the variant C29A A40C, the self-cleavage was 0.214. As for C29A A40G, the self-cleavage was 0.607.

Take G28C U43G: the self-cleavage was 0.255.

Regarding G28C U43A, the self-cleavage turned out to be 0.109. Then G28C U43C, with 0.141; and G28U C54G, with 0.158. For G28U C54A, the self-cleavage was 0.144. Under G28A U46C stands 0.192. Under G28A U46G stands 0.146; under G28A U46A, 0.184; under G28A C32U, 0.184. Then G28A C32A, with 0.19; and G28A C32G, with 0.139; and G28C U64G, with 0.116. As to G28C U64A, the self-cleavage came out at 0.222. As for G28A G47C, the self-cleavage amounted to 0.212. Under G28A G47U stands 0.262; under C27U U67C, 0.332. Under C27U U67A stands 0.276; under G28A U44C, 0.176. Then G28A U44G, with 0.136; and G28A U44A, with 0.195.

Take G28C C32A: the self-cleavage was 0.181. Under G28C C32G stands 0.168; under G28C C32U, 0.23. For C27U U49G, the self-cleavage was determined as 0.421. Then C27U U38A, with 0.281; and C27U U38C, with 0.268; and G28C A42U, with 0.25. Under G28U G37C stands 0.172; under G28U G37U, 0.166; under C27U G48C, 0.397.

As for G28A A51U, the self-cleavage came to 0.183. G28A A51C: the self-cleavage amounted to 0.234. G28C G30A: the self-cleavage is 0.22. In the case of G28C G30C, the self-cleavage was 0.143.

For the variant G28U G30U, the self-cleavage stood at 0.183. Under G28U G30A stands 0.14; under G28U G30C, 0.166; under C27U C45G, 0.243.

With G28C U69A, the self-cleavage came to 0.18. Then C27U G68A, with 0.614; and C27U G68U, with 0.432.

For the variant G28C G56U, the self-cleavage is 0.17. Take G28U C35A: the self-cleavage is 0.172.
